Consider 4 molecules from patent US20110287023A1 (AstraZeneca / MedImmune, published 2011).

For assay [1], the target named is T1, mouse RAGE/Fc fusion protein (mouse, UniProt Q62151 24-342, limits assumed).
T1 construct: not shown: Fc part, not described
In words: ELISA (right panel): RAGE-Fc immobilized, HMGB1 titrated in the presence of 0.03 µM CpG-A. Background: ELISA stands for enzyme-linked immunosorbent assay.

Assay [2] concerns the target T2, HMG1 B Box peptide amino acids 91-169.
T2 construct: also called HMG1 peptide 91-169
T2 peptide: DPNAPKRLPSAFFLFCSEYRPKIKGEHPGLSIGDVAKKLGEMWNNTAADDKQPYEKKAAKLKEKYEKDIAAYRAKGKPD
In words: ELISA, HMG1 B Box peptide 91-169 coated at 10 ug/ml, antibody titrated, anti-human IgG-HRP, OD 450. Here is the method: (§1) The plate was then blocked with 4% milk powder dissolved in PBS at 37° C. for 1 hour. The blocking solution was removed and replaced with human anti-HMG1 antibodies at various concentrations (see FIGS. 5A-B). […] HRP activity was detected with Sureblue HRP substrate (KPL). Plates were read at 450 nm using a Kinetic Microplate Reader (Molecular Devices). […] After washing and blocking with 1% BSA in PBS, the biotinylated peptides were individually added into the avidin coated wells and incubated for 30 min at room temperature. The serial diluted antibody G4, S16 and S6 at the initial concentration at 10 μg/ml were then transferred into the wells followed by adding mouse anti human IgG-HRP conjugate (Pierce). Detection was accomplished by adding 50 μl of tetramethylbenzidine (TMB) substrate (KPL) and the absorbance was read at 450 nm.

Assay [3] has as its target T3, HMG1 purified from calf (bovine) thymus (bovine, UniProt P10103 2-215).
T3 construct: also called Calf thymus HMGB1; thymus HMG1
T3 sequence (looked up): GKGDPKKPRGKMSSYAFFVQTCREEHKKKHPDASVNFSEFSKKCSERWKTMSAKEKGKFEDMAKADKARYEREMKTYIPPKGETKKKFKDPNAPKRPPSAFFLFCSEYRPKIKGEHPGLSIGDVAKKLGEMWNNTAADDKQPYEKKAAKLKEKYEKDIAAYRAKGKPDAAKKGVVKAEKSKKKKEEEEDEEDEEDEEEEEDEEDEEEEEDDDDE
Put plainly: direct ELISA, calf thymus HMGB1 coated at 5 ug/mL, antibody at 10 ug/mL, anti-human kappa/lambda-HRP, OD 490. Here is the method:
(§2) Binding to HMG1 vs. HMG2: Ultra high-binding ELISA plates (ThermoLab systems, #3855) were coated with either 5 ug/mL of Calf thymus HMGB1 or HMBG2 diluted in 10 mM Phosphate buffered saline (PBS), pH 7.2 and incubate overnight at 4 degrees. The plates were washed twice with Ca and Mg free PBS and 100 microliters of anti-HMGB1 antibody diluted in 10 mM PBS, pH 7.2+1% bovine serum albumin (BSA) to a final concentration of 10 ug/mL was added to each well and the plates were incubated 1 hour at room temperature. The wells were washed three times with 100 μl of PBS, pH 7.2. HRP labeled goat-anti-human IgG Kappa-chain (KPL, #14-10-10) and goat-anti-human IgG Lambda-chain (KPL, #14-10-11) were diluted in 10 mM PBS+1% BSA 1:1000 and 100 μl were added to each well and incubated for 1 hour at room temperature. The wells were then washed three times with 100 μl of PBS, pH 7.2. OPD substrate (Pierce chemical company, #34006) was prepared following the manufacturers instructions and 100 μl of prepared substrate was added to each well and the plates incubated at room temperature in the dark for 20-30 minutes. The reaction was stopped with the addition of 100 μl of 2M H₂SO₄, and the plates read on a plate reader at a wavelength of 490 nm.

Assay [4] deals with T4, HMG2 coated on ELISA plates (Bos taurus (Bovine), UniProt P40673 2-209).
T4 construct: also called HMGB2; HMBG2
T4 sequence: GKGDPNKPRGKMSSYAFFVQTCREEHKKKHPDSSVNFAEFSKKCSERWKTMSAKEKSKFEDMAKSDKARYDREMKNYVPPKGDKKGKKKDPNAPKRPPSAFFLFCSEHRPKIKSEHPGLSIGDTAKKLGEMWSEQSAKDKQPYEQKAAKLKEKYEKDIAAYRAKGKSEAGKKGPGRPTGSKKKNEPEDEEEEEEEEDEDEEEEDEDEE
In words: direct ELISA, HMGB2 coated at 5 ug/mL, antibody at 10 ug/mL, anti-human kappa/lambda-HRP, OD 490. As to the method:
as §2

For assay [5], the target named is T5, recombinant HMG1 produced in E. coli as a calmodulin binding protein (CBP) fusion (human). Put plainly: cell-based or functional assay.
Assay [6] has as its target T6, HMG1 B Box peptide amino acids 150-183.
T6 peptide: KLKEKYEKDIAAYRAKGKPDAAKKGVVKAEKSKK
Put plainly: ELISA, HMG1 B Box peptide 150-183 coated at 10 ug/ml, antibody titrated, anti-human IgG-HRP, OD 450. As to the method: as §1

In assay [7] the target is T5, recombinant HMG1 produced in E. coli as …. Put plainly: BIAcore 3000, mAb amine-coupled to CM5, HMG1 injected, steady-state model. Here is the method:
HMG1 Binding Affinity via BIAcore Analysis: All experiments were performed on a BIAcore 3000 instrument (BIAcore, Inc., Piscataway, N.J.). Briefly, each mAb was immobilized to a CM5 sensor chip using a standard amine coupling chemistry. Separately a reference (control) flow cell was also prepared. Two-fold, serial dilutions of HMG1 in instrument buffer were sequentially injected at a slow flow rate over the individual mAb and reference flow-cell surfaces. Following the binding and dissociation of HMG1, the mAbs surfaces were regenerated with a brief pulse of 1M NaCl-50 mM NaOH. At the end of each experiment, the binding curves were evaluated using a steady-state model available through the BIAevaluation software supplied by BIAcore, Inc. (Piscataway, N.J.).

Assay [8] addresses T6, HMG1 B Box peptide amino acids 150-183. Put plainly: ELISA, HMG1 B Box peptide 150-183 coated at 10 ug/ml, antibody titrated, OD 450. As to the method:
as §1

The target in assay [9] is T2, HMG1 B Box peptide amino acids 91-169. In words: ELISA, HMG1 B Box peptide 91-169 coated at 10 ug/ml, antibody titrated, OD 450. As to the method: as §1
Assay [10] has as its target T7, recombinant rat HMGB-1 labelled with europium (rat, UniProt P63159 1-215, limits assumed, Eu label, molar ratio HMGB-1 to Eu 1:5).
T7 construct: also called Europium-labeled HMGB-1
T7 sequence (looked up): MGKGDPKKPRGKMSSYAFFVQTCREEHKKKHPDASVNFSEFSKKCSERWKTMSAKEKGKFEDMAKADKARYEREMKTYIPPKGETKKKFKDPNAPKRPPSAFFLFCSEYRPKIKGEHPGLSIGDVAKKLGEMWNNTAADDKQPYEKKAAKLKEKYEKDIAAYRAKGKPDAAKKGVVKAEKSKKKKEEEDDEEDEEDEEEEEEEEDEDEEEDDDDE
In words: inhibition of binding of 2 nM Eu-labelled recombinant rat HMGB-1 to THP-1 cells. Here is the method: HMG1 binding to THP-1 Cells: Recombinant rat HMGB-1 was labeled using Eu-labelling Kit from PerkinElmer. Molar ratio of HMGB-1 to Eu is 1:5. THP-1 were cultured as the protocol from ATCC. Cells were harvested and suspended at concentration 1×10⁶/ml in assay buffer containing 1×DELFIA L*R binding buffer (PerkinElmer), 50% of DELFIA stabilizer (PerkinElmer) and 0.05% of sodium azide. 100 μl of cells (1×10⁵) was added into wells in 96 well cell culture plate. The plate was incubated with gentle shaking at 4° C. for one hour. 100 μl of assay buffer containing 2 nM of Europium-labeled HMGB-1 mixed with various concentrations (333, 166.5, 83.25, 41.6, 20.8, 10.4 and 5.2 nM) of human anti-HMGB1 antibodies E11 or G2 or soluble human RAGE-Fc, were added into each wells respectively. After one hour incubation with gentle shaking at 4° C., the cells were washed four times with 1×L*R wash buffer (PerkinElmer) by centrifuging at 1200 rpm×5 min. 200 μl of enhancement solution was added into each well to dissociate and enhance Eu fluorescence at 615 nm. The fluorescence was measured with Wallac Victor Fluorometer. Assay was performed in triplicate and human antibody R3-47 was used the negative isotype control.

The target in assay [11] is T4, HMG2 coated on ELISA plates. Put plainly: direct ELISA, HMGB2 coated at 5 ug/mL, OD 490. As to the method: as §2
Assay [12] deals with T8, HMGB1 in human brain tissue of multiple sclerosis plaques (human, UniProt P09429 1-215).
T8 construct: whole, on cells; tissue staining; also called HMGB1 in MS plaques
T8 sequence (looked up): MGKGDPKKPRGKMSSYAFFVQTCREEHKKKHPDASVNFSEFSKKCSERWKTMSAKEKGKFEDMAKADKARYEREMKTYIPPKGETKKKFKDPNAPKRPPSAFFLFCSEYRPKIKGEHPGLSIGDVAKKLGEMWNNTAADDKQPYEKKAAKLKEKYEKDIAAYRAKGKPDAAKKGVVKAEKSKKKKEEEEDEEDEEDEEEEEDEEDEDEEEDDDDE
Put plainly: staining of human brain tissue.

T1 sequence (Q62151 24-342 limits assumed): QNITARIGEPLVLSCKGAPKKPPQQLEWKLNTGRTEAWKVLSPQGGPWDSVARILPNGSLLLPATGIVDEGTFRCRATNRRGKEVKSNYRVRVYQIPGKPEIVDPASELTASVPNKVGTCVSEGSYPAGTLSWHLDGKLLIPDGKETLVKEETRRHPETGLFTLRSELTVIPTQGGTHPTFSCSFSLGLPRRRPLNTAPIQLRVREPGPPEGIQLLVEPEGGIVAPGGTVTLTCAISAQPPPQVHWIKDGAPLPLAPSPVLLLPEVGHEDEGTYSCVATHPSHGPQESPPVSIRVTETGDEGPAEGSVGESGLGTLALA

B1: complex of thymus HMGB1 with CpG-A DNA (other, bovine, UniProt P10103 2-215, looked up)
chain: GKGDPKKPRGKMSSYAFFVQTCREEHKKKHPDASVNFSEFSKKCSERWKTMSAKEKGKFEDMAKADKARYEREMKTYIPPKGETKKKFKDPNAPKRPPSAFFLFCSEYRPKIKGEHPGLSIGDVAKKLGEMWNNTAADDKQPYEKKAAKLKEKYEKDIAAYRAKGKPDAAKKGVVKAEKSKKKKEEEEDEEDEEDEEEEEDEEDEEEEEDDDDE
notes: also called HMGB1/CpG complex; HMGB1/CpG A complex
For the molecule B1, the EC50 (read off the curve) (usually the midpoint of the concentration-response curve) in [1] was roughly 100 nM.

B2: human anti-HMG1 antibody S12 (antibody, IgG1, V domains shown)
VH: EVQLLESGGGLVQPGGSLRLSCAASGFTFSKYIMHWVRQAPGKGLEWVSGIVPSGGLTEYADSVKGRFTISRDNSKNTLYLQMNSLRAEDTATYYCAKEIFGQFDYWGQGTLVTVSS
VL: AQSALTQPPSVSAAPRQRVTISCSGSTSNIGNNAVTWYQYFPGKAPKLLIYSDNQRPSGVPDRFSGSKSGTSASLAITGLQAEDEADYYCQSYDRGLSVVFGGGTKLTVL
notes: full length IgG1 made from a human Fab phage clone
With B2, the binding result in [2], in [3], in assay [4] and in assay [6] was “binds” throughout. In assay [5], the “IC50 IL-6” value came to 1.67 nM.

B3: human anti-HMG1 antibody G2 (antibody, IgG1, V domains shown)
VH: EVQLLESGGGLVQPGGSLRLSCAASGFTFSWYKMQWVRQAPGKGLEWVSGISPSGGSTAYADSVKGRFTISRDNSKNTLYLQMNSLRAEDTAVYYCAKMGLFNTGNSYVDYWGQGTLVTVSS
VL: AQSELTQPPSVSEAPGQRVTISCSGSTSNIGNNAVIWYQQLPGKAPKLLIYYDDLLPSGVSDRFSGSKSGTSGSLAISGLQSEDEADYYCASWDDNLNGPLFGGGTKLTVL
notes: as for B2
Turning to B3, the binding result in [3] was “binds”. Besides, the Kd (in general, the equilibrium constant for the complex coming apart) in assay [7] was 101 nM. In assay [8], the binding result is given as “no binding (tested: 10 ug/ml (log 1.0))”. Further, in assay [9], the binding result is on record as “no binding (tested: 10 ug/ml (log 1.0))”. For the same molecule, in assay [5], the “IC50 IL-1β” value is 5.03 µg/mL, the “IC50 IL-6” value turned out to be 0.994 nM, the “IC50 IL-12” value came out at 1.26 µg/mL and the “IC50 TNF-α” value came to 1.35 µg/mL. Besides, in assay [10], the IC50 – broadly, the concentration that inhibits the measured activity by half – came out at 73.3 nM. In addition, in assay [11], the binding result is listed as “no binding (tested: 10 ug/mL (single concentration))”.

B4: human anti-HMG1 antibody G16 (antibody, IgG1, V domains shown)
VH: EVQLLESGGGLVQPGGSLRLSCAASGFTFSWYKMTWVRQAPGKGLEWVSSISPSGGFTSYADSVKGRFTISRDNSKNTLYLQMNSLRAEDTAVYYCARDLDIRHAFDIWGQGTMVTVSS
VL: DIQMTQSPGTLSLSPGESGTLSCRASESVSSRHFAWYQQKPGQAPRLLIYGASSRPTGIPDRFSGSGSGTDFTLTLSRLEPEDFAVYFCQYYGSSPYTFGGGTKVEMK
notes: as for B2
On to B4, for which the Kd in [7] was 22 nM. Moreover, the results for the binding result in assay [8], in assay [9] and in assay [12] were “no binding (tested: 10 ug/ml (log 1.0))”, “no binding (tested: 10 ug/ml (log 1.0))” and “binds”, respectively. For the same molecule, the “IC50 IL-6” value in [5] stood at 1.06 nM. Besides, the “IC50 NO” value in assay [5] amounted to 22 µg/mL.
